The values that follow come from PMC11840411, “GS2 cooperates with IPA1 to control panicle architecture” (The New Phytologist, 2025).

The target of data set [1] is T1, GST-IPA1 fusion protein (rice (Oryza sativa), UniProt Q7EXZ2 1-417).
T1 construct: IPA1/OsSPL14 of rice, full-length CDS in pGEX-4T-1; source: E. coli BL21 (DE3), purified on glutathione beads
T1 sequence (looked up): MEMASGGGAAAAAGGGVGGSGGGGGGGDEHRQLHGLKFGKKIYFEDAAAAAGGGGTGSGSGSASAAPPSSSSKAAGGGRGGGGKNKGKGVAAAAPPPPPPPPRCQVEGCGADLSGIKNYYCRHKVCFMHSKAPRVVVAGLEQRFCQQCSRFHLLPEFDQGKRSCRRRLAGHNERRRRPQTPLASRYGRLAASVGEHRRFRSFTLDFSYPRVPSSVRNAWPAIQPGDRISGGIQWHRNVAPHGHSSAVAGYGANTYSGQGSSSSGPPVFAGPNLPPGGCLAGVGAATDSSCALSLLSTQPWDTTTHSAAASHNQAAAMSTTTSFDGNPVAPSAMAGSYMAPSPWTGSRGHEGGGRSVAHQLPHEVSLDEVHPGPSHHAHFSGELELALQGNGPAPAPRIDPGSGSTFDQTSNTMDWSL
Kind of data set: pull-down; about 0.5 μg GST-IPA1 bound to GST beads at 4°C for 2 h, the same amount of His-GS2 incubated for 2 h; 150 mM KCl, 50 mM Tris-HCl pH 7.5, 0.01% NP-40; detected with His and GST antibodies. To be noted: both partners purified.

In data set [2] the target is T2, GS2TM (miR396 target-site mutant) (Oryza sativa (rice), GS2TM plants?, UniProt Q6ZIK5 1-394, S163K).
T2 sequence: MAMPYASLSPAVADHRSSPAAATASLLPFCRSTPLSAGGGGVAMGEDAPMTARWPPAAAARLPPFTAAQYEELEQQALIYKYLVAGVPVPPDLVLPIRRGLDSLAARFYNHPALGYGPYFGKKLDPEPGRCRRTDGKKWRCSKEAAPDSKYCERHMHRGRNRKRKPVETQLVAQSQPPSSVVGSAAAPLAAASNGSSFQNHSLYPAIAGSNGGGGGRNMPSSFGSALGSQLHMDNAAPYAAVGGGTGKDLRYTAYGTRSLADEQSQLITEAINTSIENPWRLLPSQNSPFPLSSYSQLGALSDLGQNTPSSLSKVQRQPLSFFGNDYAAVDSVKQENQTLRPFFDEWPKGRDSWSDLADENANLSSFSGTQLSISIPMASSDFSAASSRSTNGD
The experiment in a line: EMSA; EMSA: 20 min at 25 C, 4% acrylamide gel, biotin probes (Beyotime GS008/GS009); buffer, salt and pH not stated. To be noted: protein: recombinant; tags: GST; label: biotin; blunt. (A gel shift assay detects complexes by their altered migration in electrophoresis.)

In data set [3] the target is T3, GS2 (OsGRF4) (Oryza sativa (rice), ZH11?, UniProt Q6ZIK5 1-394).
T3 sequence: T2 sequence with K163S
Described as above. To be noted: protein: recombinant; tags: GST; label: biotin; blunt.

Residue numbers refer to the chain shown, from its start.

B1: His-GS2 fusion protein (natural protein, rice (Oryza sativa), UniProt Q6ZIK5 1-394, looked up)
chain: T2 sequence with K163S
notes: GS2/OsGRF4 of rice, full-length CDS in pET28a
With B1, in data set [1], the binding result is listed as “binds”.

B2: GCCA core motif probe (GS2-EMSA) (dsDNA)
DNA 1: CCTGTCAAAGCCGGCCATCGCTGCCGGCTG
DNA 2: CAGCCGGCAGCGATGGCCGGCTTTGACAGG
Take B2: the binding result in data set [2] and in data set [3] was “binds” throughout.
